The target of test [1] is T1, human 4Ig-B7H3 antigen (SinoBiological cat#11188-H08H) (human, UniProt Q5ZPR3 29-461).
T1 construct: Commercial product; The entry as printed is the B7H3 extracellular region (4Ig form) followed by a His-tag; also called Human 41g-B7H3; human B7H3 antigen for detection
T1 sequence: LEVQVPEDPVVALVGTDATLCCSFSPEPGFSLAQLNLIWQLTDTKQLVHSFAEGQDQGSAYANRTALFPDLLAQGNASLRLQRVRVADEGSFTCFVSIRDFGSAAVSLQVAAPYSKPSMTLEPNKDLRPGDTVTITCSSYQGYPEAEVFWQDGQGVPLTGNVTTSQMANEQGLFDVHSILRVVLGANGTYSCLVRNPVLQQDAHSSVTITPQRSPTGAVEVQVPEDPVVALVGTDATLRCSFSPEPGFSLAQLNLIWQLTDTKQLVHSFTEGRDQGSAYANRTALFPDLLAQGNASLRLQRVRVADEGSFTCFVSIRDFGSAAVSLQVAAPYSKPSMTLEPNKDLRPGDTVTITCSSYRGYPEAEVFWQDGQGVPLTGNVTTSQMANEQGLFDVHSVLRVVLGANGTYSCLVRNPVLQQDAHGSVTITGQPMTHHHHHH
Kind of test: SPR (Biacore T200), ADC captured on Protein A chip, antigen flowed over, 1:1 Langmuir fit. An excerpt:
(§1) A biosensor chip Protein A (Cat.#29127556, GE) was used to affinity capture a certain amount of antibody/ADC to be tested. Series diluted human 2Ig-B7H3 antigen (Cat.#1949-B3-050/CF, R&D) and human 4Ig-B7H3 antigen (Cat.#11188-H08H, Sino Biological) were flowed through the surface of the chip. Real-time reaction signal was detected by using Biacore instrument (Biacore T200, GE) to obtain the association and dissociation curves. After completion of each cycle of dissociation, the biochip was washed and regenerated with glycine-hydrochloric acid regeneration solution (pH 1.5) (Cat.# BR-1003-54, GE). The buffer used in the experiment was HBS-EP buffer solution (pH 7.4) (Cat.# BR-1001-88, GE).
(§2) The experimental data was fitted with BIAevaluation version 4.1 GE software in a (1:1) Langmuir model to obtain affinity values.
In general terms: In SPR one partner is held on a chip, and binding of the other changes the refractive index at the surface.

Test [2] has as its target T1, human 4Ig-B7H3 antigen (SinoBiological …). Kind of test: SPR (Biacore T200), antibody captured on Protein A chip, antigen flowed over, 1:1 Langmuir fit.
Excerpt: as §1, §2

Test [3] addresses T2, human 2Ig-B7H3 antigen (R&D cat#1949-B3-050/CF) (human, UniProt Q5ZPR3 29-245).
T2 construct: Commercial product; The entry as printed is the B7H3 extracellular region (2Ig form) followed by a His-tag; also called human B7H3 antigen for screening and detection
T2 sequence: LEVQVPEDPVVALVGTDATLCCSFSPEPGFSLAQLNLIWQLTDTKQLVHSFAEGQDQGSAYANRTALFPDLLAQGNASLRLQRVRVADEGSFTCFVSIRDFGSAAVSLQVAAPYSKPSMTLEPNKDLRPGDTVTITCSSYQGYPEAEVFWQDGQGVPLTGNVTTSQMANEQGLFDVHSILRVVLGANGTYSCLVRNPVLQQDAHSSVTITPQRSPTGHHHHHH
The test is described as above.
Excerpt: as §1, §2

B1: ADC-2 (antibody 1702DS conjugated with compound 5-A, formula FADC-2, n=7.24) (antibody, human IgG1, lambda)
heavy: not shown
light: DTVVTQEPSFSVSPGGTVTLTCGLSSGSVSTSHYPSWYQQTPGQAPRMLIYNTNTRSSGVPDRFSGSILGNKAALTITGAQADDESDYYCAIHVDRDIWVFGGGTKLTVLGQPKANPTVTLFPPSSEELQANKATLVCLISDFYPGAVTVAWKADGSPVKAGVETTKPSKQSNNKYAASSYLSLTPEQWKSHRSYSCQVTHEGSTVEKTVAPTEC
modifications: linker-drug compound 5-A (maleimide-GGFG-exatecan analog) coupled after TCEP reduction of the antibody's disulfide bonds; average n=7.24 per antibody; positions not given
notes: Antibody-drug conjugate; also called B7H3-ADC
In general, Kd refers to the constant that tells how readily two partners part at equilibrium. With B1, the dissociation constant Kd in test [1] amounted to 7.55 nM.

B2: h1702 antibody (antibody, human IgG1, lambda)
heavy: not shown
light: QTVVTQEPSFSVSPGGTVTLTCGLSSGSVSTSHYPSWYQQTPGQAPRMLIYNTNTRSSGVPDRFSGSILGNKAALTITGAQADDESDYYCAIHVDRDIWVFGGGTKLTVLGQPKANPTVTLFPPSSEELQANKATLVCLISDFYPGAVTVAWKADGSPVKAGVETTKPSKQSNNKYAASSYLSLTPEQWKSHRSYSCQVTHEGSTVEKTVAPTECS
notes: Fully human IgG1/lambda full-length antibody from a phage library, expressed in HEK293E cells; also called B7H3 antibody h1702; anti-B7H3 antibody
Turning to B2, the Kd in test [2] was 8.55 nM; in test [3] it was 797 nM.

The record behind these values is patent publication US20210347894A1 (JIANGSU HANSOH PHARMACEUTICAL GROUP, published 2021).
